Like-named read-outs stand apart in the source and are kept apart here. Each block holds one binder with its values, some of them ahead of it. Square brackets hold non-standard residues; d marks the D form. Ends that are not written are not given here.
Tests used:
[1] = biological target: T1, Marmoset Type II GnRH receptor (marmoset); assay: competition with ^125I-[His^5,D-Tyr^6]GnRH on COS-7 cells expressing marmoset Type II GnRH-R (FIG. 4, n=2)
T1 chain: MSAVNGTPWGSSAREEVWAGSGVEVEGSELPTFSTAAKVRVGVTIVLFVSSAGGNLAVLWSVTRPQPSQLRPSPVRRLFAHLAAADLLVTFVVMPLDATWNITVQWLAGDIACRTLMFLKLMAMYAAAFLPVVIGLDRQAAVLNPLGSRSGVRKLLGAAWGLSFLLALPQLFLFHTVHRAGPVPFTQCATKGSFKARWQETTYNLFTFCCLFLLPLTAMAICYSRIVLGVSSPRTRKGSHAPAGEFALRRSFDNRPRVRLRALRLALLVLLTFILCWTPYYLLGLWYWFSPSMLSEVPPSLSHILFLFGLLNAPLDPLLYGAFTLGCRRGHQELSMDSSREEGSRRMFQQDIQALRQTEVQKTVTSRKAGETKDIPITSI

[2] = biological target: T1, Marmoset Type II GnRH receptor; assay: cell-based or functional assay
[3] = biological target: T1, Marmoset Type II GnRH receptor; assay: cell-based or functional assay
[4] = biological target: T2, human Type I GnRH receptor (human, UniProt P30968 1-328); assay: cell-based or functional assay
T2 sequence (looked up): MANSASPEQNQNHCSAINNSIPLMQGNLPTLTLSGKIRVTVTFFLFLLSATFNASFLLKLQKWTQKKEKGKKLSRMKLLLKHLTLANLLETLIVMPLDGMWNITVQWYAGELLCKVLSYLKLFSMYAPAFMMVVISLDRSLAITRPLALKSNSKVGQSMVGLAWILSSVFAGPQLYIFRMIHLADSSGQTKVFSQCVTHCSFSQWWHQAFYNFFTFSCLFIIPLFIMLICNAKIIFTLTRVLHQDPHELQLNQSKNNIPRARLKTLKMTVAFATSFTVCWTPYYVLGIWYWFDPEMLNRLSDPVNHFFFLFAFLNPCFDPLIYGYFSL

[5] = biological target: T1, Marmoset Type II GnRH receptor; assay: receptor binding assay on COS-7 cells; reference mammalian GnRH I
[6] = biological target: T1, Marmoset Type II GnRH receptor; assay: receptor binding assay on COS-7 cells; reference human Type I GnRH receptor
[7] = biological target: T1, Marmoset Type II GnRH receptor; assay: competition with ^125I-[His^5-D-Tyr^6]GnRH I on COS-7 cells expressing the receptor (n = 3-6)
[8] = biological target: T2, human Type I GnRH receptor; assay: as above
[9] = biological target: T3, human Type I GnRH receptor (human), P30968; assay: as above
T3 chain: T2 sequence (looked up)

[10] = biological target: T4, Marmoset Type II GnRH receptor (marmoset); assay: as above
T4 chain: T1 chain

[11] = biological target: T3, human Type I GnRH receptor (human), …; assay: cell-based or functional assay
[12] = biological target: T4, Marmoset Type II GnRH receptor …; assay: cell-based or functional assay
[13] = biological target: T4, Marmoset Type II GnRH receptor …; assay: competition with ^125I-[His^5,D-Tyr^6]GnRH on COS-7 cells expressing marmoset Type II GnRH-R (FIG. 4, n=2)

IC50 [1]: 1.3 nM
stimulation of inositol phosphate production, fold greater activity relative to mammalian GnRH I [2]: 90 fold
total inositol phosphate production (EC50) [2]: 0.46 nM
InsP production (EC50) [3]: 0.45 nM
InsP production (EC50) [4]: 7.41 nM
fold greater activity relative to mammalian GnRH I [5]: 40 fold
fold greater affinity than for the Type I receptor [6]: 24 fold
IC50 [7]: 1.07 nM
IC50 [8]: 26.1 nM
B1: GnRH II (peptide, UniProt O43555 24-33, looked up)
peptide: QHWSHGWYPG
modifications: ends and bridges not checked
notes: mature; also called GnRH Type II; Type II GnRH

IC50 [9]: 244 nM
IC50 [10]: 9.48 nM
InsP production (EC50) [11]: 9.62 nM
InsP production (EC50) [12]: 5.99 nM
total inositol phosphate production (EC50) [12]: 8.7 nM
IC50 [13]: 9.8 nM
B3: salmon GnRH, P01148 24-33 (peptide, UniProt P01148 24-33, looked up)
peptide: QHWSYGWLPG
modifications: not checked

Further lines, the binder ahead of its results:

B2: [D-Arg^6]GnRH II (peptide, UniProt O43555 24-33, looked up)
peptide: QHWSH[dR]WYPG
modifications: ends and bridges not checked
notes: mature; Synthetic analogue of GnRH II; also called [D-Arg^6]GnRH Type II
total inositol phosphate production (EC50) [2]: 1.1 nM
InsP production (EC50) [3]: 2.39 nM
InsP production (EC50) [4]: 3.8 nM
IC50 [7]: 3.34 nM

B4: Mammalian GnRH I, P01148 24-33 (peptide, UniProt P01148 24-33, looked up)
peptide: QHWSYGLRPG
modifications: not checked
IC50 [10]: 42.6 nM
InsP production (EC50) [12]: 40.5 nM
total inositol phosphate production (EC50) [12]: 33.2 nM
IC50 [13]: 51.7 nM

Source: patent US20030124585A1, “Type II gonadotropin-releasing hormone receptor and polynucleotides encoding therefor” (Medical Research Council, priority 2000, published 2003)
